This is an account of results in the supplement of paper PMC9170038.

For data set [1], the system named is MS2 coat protein. The data set is described as follows: apparent KD of MS2 coat protein, switch OFF state (with FMN for OFF switches, without FMN for ON switches); designed switch direction (-1 OFF switch, 1 ON switch): -1; higher = weaker reporter binding. Conditions: FMN input: 0 or 200 uM; Eterna round: R93 (includes R88 designs). In outline: (§1)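 Binding of SNAP-549-labelled MS2 coat protein was measured on designed RNA switches transcribed on-chip from Illumina sequencing clusters. The protein rose in twofold steps from 0.7 or 1.5 nM to 3 µM, with 0.8–1.5 h per step early on and 10–20 min per step later, in 100 mM Tris-HCl pH 7.5, 80 mM KCl, 4 mM MgCl2, without or with constant ligand. Each design's apparent KD is the median of fits to its normalised cluster binding curves.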

Data set [2] relates to MS2 coat protein. The data set is described as follows: apparent KD of MS2 coat protein, switch ON state; designed switch direction (-1 OFF switch, 1 ON switch): -1; higher = weaker reporter binding. Conditions: FMN input: 0 or 200 uM; Eterna round: R93 (includes R88 designs). The essentials: as §1

Turning to “AAAACGUGAGGAUAUGCACCAAAAAAAAAAAAACGGGUACGACAUGAGGAUCACCCAUGUAGAAGGCACGAAAA [Frodo Flailing 7 - Jieux - Exclusion 2]”, the “apparent KD of MS2 coat protein” value was 39.4 nM in the data set with MS2 coat protein [1] and 56 nM in the data set with MS2 coat protein [2].
The corresponding values for “AAAACUGGAGGAUAUACGUACAUGUCGAAAGACGUGAAGGGACAUGAGGAUCACCCAUGUAGAAGGCUAGAAAA [Mat - Exclusion 2 - JL mod - D71]” are 87.6 nM and 53.1 nM.
The like results for “AAAAGACAUGAGGAUCACCCAUGUUAGGAUAUCGUGCAGAAAAAAAAAAAAAACUGCACGAGAAGGAACAAGGA [Seclusion]” were, in that order, 51.9 nM and 30.5 nM.
Take “AAAAGUAGAGGAUAUACAUGAGGAUCACCCAUGUAGAAAGGAAGUGUAUAUAUGGCAUGUAGAAGGCUACAUGA [Banishment 8 - Jieux - Exclusion 3]”: the “apparent KD of MS2 coat protein” value in the data set on MS2 coat protein [1] was 34.2 nM; in the data set with MS2 coat protein [2], 27.4 nM.
The corresponding values for “AAAAGUGGAGGAUAUACAUGAGGAUCACCCAUGUGUAAAAAUAAAAACACAAAAGAAAGUAGAAGGCCACAAAG [Mat - Exclusion 3 - Mayanna mod - D115]” are 55.2 nM and 19.4 nM.
For “AAAAUGUCAGGAUAUGCGAAGGCGUCUGAUAGAAGAGGAUAGCAGAAGGGACAUGAGGAUCACCCAUGUGGAAA [Opal 25]”, the “apparent KD of MS2 coat protein” value was found to be 124 nM in the data set on MS2 coat protein [1] and 72.3 nM in the data set with MS2 coat protein [2].
The corresponding values for “AAAAUGUCAGGAUAUGCGAAGGCGUCUGAUAGACGAGGCUAGCAGAAGGGACAUGAGGAUCACCCAUGUAAAAA [Power strip]” are 179 nM and 82.2 nM.
The like results for “AAAAUGUCAGGAUAUGUAGCAAAAAGUGAUCCAAAAAAGCUACAGAAGGGACAUGAGGAUCACCCAUGUAAAAA [Ex4: 932]” were, in that order, 406 nM and 244 nM.
The corresponding values for “AAACAUGGAGGAUAUACAUGAGGAUCACCCAUGUGUAUAAAAAAAUAUACAAAAGAAUGUAGAAGGCCAUGAAA [Ex 3 Snow]” are 54.2 nM and 36.1 nM.
For “AAACAUGGAGGAUAUACAUGAGGAUCACCCAUGUGUAUGAAAAAAUAUACAAAAGAAUGUAGAAGGCCAUGAAA [Mat - Exclusion 3 - Mayanna mod - D102]”, the “apparent KD of MS2 coat protein” value in the data set with MS2 coat protein [1] is 47.8 nM; with MS2 coat protein [2] it was 26.9 nM.
The corresponding values for “AAACGUAGAGGAUAUACGAAAAGAUUACGAAAGUAAUCGGGACAUGAGGAUCACCCAUGUAGAAGGCUACGAAA [Mod2 of Meechl 64% 3]” are 61 nM and 27.1 nM.
As to “AAAGAACAUGAGGAUCACCCAUGUGAGGAUAUACGAGCGUGAGAAAGAUAAAACGAGCGUAGAAGGCACAAGAA [JR_Exclusion1_Sub4]”, the figures for the “apparent KD of MS2 coat protein” value in the data set with MS2 coat protein [1] and in the data set with MS2 coat protein [2] were 49.3 nM and 43.4 nM, respectively.
Turning to “AAAGCACGAGGAUAUACAUGAGGAUCACCCAUGUAUAAAAAAAAAAAAAAAUCCUCAUGUAGAAGGCGUGCAAA”, the figures for the “apparent KD of MS2 coat protein” value with MS2 coat protein [1] and with MS2 coat protein [2] were 9.78 nM and 17.4 nM, respectively.
In the case of “AAAGGACAAGGAUAUACAUGAGGAUCACCCAUGUAAAAAACAUAAUAAAAUAACUUAUGUAGAAGGUGUCCAAA [Mat - Exclusion 3 - Eli mod - D99]”, the “apparent KD of MS2 coat protein” value in the data set on MS2 coat protein [1] came to 57.1 nM; in the data set on MS2 coat protein [2], 23.1 nM.
Take “AAAGGACGAGGAUAUACAUGAGGAUCACCCAUGUAAAAAACAUAAAAAAAGAAAUUAUGUAGAAGGCGUCCAAA [69%, Moding Meechl, 4]”: the “apparent KD of MS2 coat protein” value with MS2 coat protein [1] is 17.8 nM; in the data set on MS2 coat protein [2], 18.1 nM.
Take “AAAGGACGAGGAUAUACAUGAGGAUCACCCAUGUAAAAAACAUAAUAAAAGAAUUUAUGUAGAAGGCGUCCAAA [69%, Moding Meechl, 1]”: the “apparent KD of MS2 coat protein” value with MS2 coat protein [1] was found to be 17.1 nM; with MS2 coat protein [2], 18.1 nM.
For “AAAGGACGAGGAUAUACAUGAGGAUCACCCAUGUAAAGGGCAUAAAAAAAGAACUUAUGUAGAAGGCGUCCAAA [Mat - Exclusion 3 - Eli mod - D95]”, the “apparent KD of MS2 coat protein” value with MS2 coat protein [1] is 26.8 nM; in the data set on MS2 coat protein [2] it was 35 nM.
For the sequence “AAAGGAUCAGGAUAUGUGUGGAAAAAGUGUAUUCAAAAAAAACAUGAGGAUCACCCAUGUAGAAGGGAUCCAAA [Mod of 2Normal (20/19) by Nando, Round 1]”, the “apparent KD of MS2 coat protein” value in the data set with MS2 coat protein [1] was 397 nM; with MS2 coat protein [2], 298 nM.
For the sequence “AAAGGGUCAGGAUAUCGAUUAAUAAUAAAAUAAAUAAAGAUCGAGAAGGGACAUGAGGAUCACCCAUGUAUAAA [May 77]”, the “apparent KD of MS2 coat protein” value with MS2 coat protein [1] is 54.6 nM; in the data set on MS2 coat protein [2], 45.9 nM.
The corresponding values for “AAAGGGUCAGGAUAUUGAUUAAUAAUAAAAUAAAUAAAGAUCAAGAAGGGACAUGAGGAUCACCCAUGUAUAAA [May 78]” are 63 nM and 40.5 nM.
As for “AAAGUACGAGGAUAUACAUAGAUACAGAUACAUGUAGACGUACAUGAGGAUCACCCAUGUAGAAGGCGUACAUA [Mat - Same state - Mayanna Mod - D115]”, the entries for the “apparent KD of MS2 coat protein” value with MS2 coat protein [1] and with MS2 coat protein [2] were 74.7 nM and 154 nM, respectively.
The corresponding values for “AAAGUGUCAGGAUAUGCUGCUCGUCACGAAAGUGAUGAGUAGCAGAAGGGACAUGAGGAUCACCCAUGUAAAGA [Exclusion 4.1d (Exclusion4-cac2 - mutated U at 5 and G at 4)]” are 205 nM and 110 nM.
The corresponding values for “AAAGUGUGAGGAUAUGCGAAAGGACACGAAAGUGACAAAGAGCAGAAGGUACAUGAGGAUCACCCAUGUAAAAA [milkweed 19]” are 20.4 nM and 27.2 nM.
“AAAUAGCAAGGAUAUACAUGAGGAUCACCCAUGUAAAAAUGGAAAGUAAUAAAAUAAAGUAGAAGGUGCAAAUA [Ex 3 Tesla 3]”: the “apparent KD of MS2 coat protein” value with MS2 coat protein [1] was 37 nM; in the data set on MS2 coat protein [2], 26.9 nM.
In the case of “AAAUAGCAAGGAUAUACAUGAGGAUCACCCAUGUGAACAAGGUAUGGAAUAGAAUAGAGUAGAAGGUGCAAAUA [Mod 2 of Ex 3 Tesla 8 - Jieux - Exclusion 3]”, the “apparent KD of MS2 coat protein” value in the data set on MS2 coat protein [1] is 43.4 nM; in the data set on MS2 coat protein [2], 31.3 nM.
For “AAAUAGUUAGGAUAUACAUGAGGAUCACCCAUGUGGACUUAUGGCGAGUAAUUUAGUGGUAGAAGGGACUAAAA [EX2 Malc#29]”, the “apparent KD of MS2 coat protein” value in the data set with MS2 coat protein [1] worked out at 47 nM; with MS2 coat protein [2], 46.2 nM.
The like results for “AAAUGCUGAGGAUAUACAUGAGGAUCACCCAUGUAAAAUAAAUAAUGGGUGUAAACGUGUAGAAGGCAGCAUAA [Exclusion 3.14d (FMN+ favored )]” were, in that order, 16.8 nM and 33.8 nM.
The corresponding values for “AAAUGCUGAGGAUAUACAUGAGGAUCACCCAUGUGAAAUAAAAAAUGUGUGUAAUCGUGUAGAAGGCAGCAUAA [Exclusion 3.13 (FMN+ favored more)]” are 18.1 nM and 21.6 nM.
The like results for “AAAUUGUCAGGAUAUCGUAUAACUCUAAAAUAGAGGAGAUACGAGAAGGGACAUGAGGAUCACCCAUGUAAAAC [May 87]” were, in that order, 57.2 nM and 61.4 nM.
As to “AAAUUGUCAGGAUAUCUGGAUAGGAAAAAGAAAACCUAUCCAGAGAAGGGACAUGAGGAUCACCCAUGUAAAAA [JL cataway mod 1]”, the “apparent KD of MS2 coat protein” value is 107 nM in the data set with MS2 coat protein [1] and 81.1 nM with MS2 coat protein [2].
The like results for “AACAAACAUGAGGAUCACCCAUGUCAGGAUAUCGAAACAACAAACAACAAACAACAAACGAGAAGGGACAACAA [e1]” were, in that order, 23.8 nM and 19.2 nM.
As for “AACAAACAUGAGGAUCACCCAUGUCAGGAUAUGCACAAACAAACAAACAAACAAGCAAGCAGAAGGGACACAAC [Amethyst 89]”, the “apparent KD of MS2 coat protein” value with MS2 coat protein [1] was determined as 27.6 nM; in the data set with MS2 coat protein [2], 13.7 nM.
The corresponding values for “AACAAGACAGGAUAUACAUGAGGAUCACCCAUGUGAGAAUUAAGUGGCGUAACACAAAGUAGAAGGGUCAUGGA [Ruby 4]” are 56.2 nM and 38 nM.
The corresponding values for “AACAAGUGAGGAUAUGAAAAUACAACAAACAAACAACUACAUCAGAAGGCACAUGAGGAUCACCCAUGUAAAAC [JR_Exc004_Sub1204]” are 20.7 nM and 19 nM.
For the sequence “AACACACAUGAGGAUCACCCAUGUAAGGAUAUGCGAGCAAGAAGAAAGAACAGAAAAAGCAGAAGGUACACACA [Amethyst 75]”, the “apparent KD of MS2 coat protein” value stood at 29.5 nM in the data set on MS2 coat protein [1] and 29.6 nM in the data set with MS2 coat protein [2].
The like results for “AACAGGUCAGGAUAUGUGGAAAAAAUAAAAAAAAUAAAAACACAGAAGGGACAUGAGGAUCACCCAUGUAAAUA [May 22]” were, in that order, 114 nM and 58 nM.
The like results for “AACAGUACAGGAUAUACAUGAGGAUCACCCAUGUAAAAAAAGGGUGGCGUACCACAAAGUAGAAGGGUACUGGA [Moding Maslow revisited (73) 10]” were, in that order, 44.1 nM and 109 nM.
The like results for “AACAGUACAGGAUAUACAUGAGGAUCACCCAUGUAAAAAAGGGCUGGCGUACCAGAAAGUAGAAGGGUACUGGA [Moding Maslow revisited (73) 9]” were, in that order, 88.1 nM and 30.6 nM.
As for “AACAGUACAGGAUAUACAUGAGGAUCACCCAUGUAAAGGGAAUAAAACAAAAAAAAAUGUAGAAGGGUACUGGA [Mat - Exclusion 3 - Eli mod - D66]”, the “apparent KD of MS2 coat protein” value in the data set with MS2 coat protein [1] was 110 nM; in the data set with MS2 coat protein [2], 75.1 nM.
